Values quoted from earlier work as cited in patent US20150174267A1, “COMPOSITIONS AND METHODS FOR THE TRANSPORT OF THERAPEUTIC AGENTS” (Angiochem Inc., priority 2009, published 2015).
Where no end group is shown, it is not given here.

What was measured:
[1] = for efficient transport across the BBB: efficiently = at least as efficiently as Angiopep-6
[2] = system: liver, lung, kidney, spleen, and muscle cells

Compound	efficient transport across the BBB [1]	other results
Angiopep-7: targeting polypeptide of Table 1, SEQ ID NO:112 (TFFYGGSRGRRNNFRTEEY)	does not cross the BBB efficiently	efficient transport into particular cell types [2]: efficiently transported into liver, lung, kidney, spleen, and muscle cells
Angiopep-2: targeting polypeptide of Table 1, SEQ ID NO:97	cross the mammalian BBB efficiently	–
Angiopep-1: targeting polypeptide of Table 1, SEQ ID NO:67 (TFFYGGCRGKRNNFKTEEY; not fully specified (C-terminus))	cross the mammalian BBB efficiently	–
Angiopep-4b: targeting polypeptide of Table 1, SEQ ID NO:109 (RFFYGGSRGKRNNFKTEEY; not fully specified (N-terminus))	cross the mammalian BBB efficiently	–
COc1cc([C@@H]2c3cc4c(cc3[C@@H](O[C@@H]3O[C@@H]5CO[C@@H](C)O[C@H]5[C@H](O)[C@H]3O)[C@H]3COC(=O)[C@H]23)OCO4)cc(OC)c1OP(=O)(O)O [Etoposide phosphate, etoposide phosphate]	–	water solubility compared to etoposide: improved water solubility
Angiopep-5: targeting polypeptide of Table 1, SEQ ID NO:110 (RFFYGGSRGKRNNFRTEEY; not fully specified (N-terminus))	cross the mammalian BBB efficiently	–
Angiopep-4a: targeting polypeptide of Table 1, SEQ ID NO:108 (RFFYGGSRGKRNNFKTEEY)	cross the mammalian BBB efficiently	–
Angiopep-6: targeting polypeptide of Table 1, SEQ ID NO:111 (TFFYGGSRGKRNNFRTEEY)	cross the mammalian BBB efficiently	transport across the BBB relative to that of Angiopep-1 ([1]; relative to Angiopep-1 (250 nM), in situ brain perfusion assay of US 2009/0016959): 38.5%
